Positions count from the first letter of the chain named.
T1: α11β1 expressed on the surface of CHO-K1 cells (Homo sapiens, UniProt Q9UKX5)
T1 construct: expressed in transfected cells; host or cells: CHO-K1
T1 sequence (Q9UKX5 23-1188): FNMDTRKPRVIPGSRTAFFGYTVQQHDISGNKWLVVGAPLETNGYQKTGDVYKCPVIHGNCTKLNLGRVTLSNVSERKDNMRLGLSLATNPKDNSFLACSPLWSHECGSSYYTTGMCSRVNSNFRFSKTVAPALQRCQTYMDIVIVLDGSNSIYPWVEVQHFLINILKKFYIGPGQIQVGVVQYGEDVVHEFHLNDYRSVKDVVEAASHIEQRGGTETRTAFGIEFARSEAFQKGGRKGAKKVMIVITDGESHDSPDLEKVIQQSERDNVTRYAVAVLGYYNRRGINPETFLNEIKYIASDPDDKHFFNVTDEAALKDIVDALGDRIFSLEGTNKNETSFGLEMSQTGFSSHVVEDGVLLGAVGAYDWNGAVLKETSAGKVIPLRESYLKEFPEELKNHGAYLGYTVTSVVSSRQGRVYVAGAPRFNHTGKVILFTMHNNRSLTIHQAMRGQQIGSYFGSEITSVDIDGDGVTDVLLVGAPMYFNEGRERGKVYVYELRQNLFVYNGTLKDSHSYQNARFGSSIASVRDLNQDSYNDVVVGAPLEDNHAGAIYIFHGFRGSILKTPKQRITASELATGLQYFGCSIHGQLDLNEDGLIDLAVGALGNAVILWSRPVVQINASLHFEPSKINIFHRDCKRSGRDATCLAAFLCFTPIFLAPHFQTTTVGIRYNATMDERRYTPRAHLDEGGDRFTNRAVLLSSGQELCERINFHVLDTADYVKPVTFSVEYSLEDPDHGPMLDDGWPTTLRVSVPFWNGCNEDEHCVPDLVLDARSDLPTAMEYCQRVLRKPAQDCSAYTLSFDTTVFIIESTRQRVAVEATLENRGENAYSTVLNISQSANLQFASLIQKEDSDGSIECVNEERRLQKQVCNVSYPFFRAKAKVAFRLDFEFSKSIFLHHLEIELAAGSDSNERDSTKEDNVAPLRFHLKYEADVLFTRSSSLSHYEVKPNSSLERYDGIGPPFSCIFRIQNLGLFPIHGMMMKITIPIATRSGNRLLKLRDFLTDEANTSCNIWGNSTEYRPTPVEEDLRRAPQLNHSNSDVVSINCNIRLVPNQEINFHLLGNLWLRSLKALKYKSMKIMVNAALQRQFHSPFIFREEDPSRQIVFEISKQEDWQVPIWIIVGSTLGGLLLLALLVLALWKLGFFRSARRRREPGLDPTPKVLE

B1: 8-P20: mouse anti-α11β1 mAb; VH SEQ ID NO: 105, VL SEQ ID NO: 106 (antibody, V domains shown)
VH: KVMLVESGGALVKPGGSLKLSCVASGFTFSNYAMSWVRQTPEKRLEWVATISSGGYYTYYPDSVKGRFTISRDNARNTLFLQMSSLRSEDTAMFYCAREDDYGRYSYTMDYWGQGTSVTVSS
VL: DVVMTQTPLSLPVSLGDQVSISCRCSQSLVHSNGNTYLHWYLQKPGQSPQLLIYKISNRFSGVPDRFSGSGSGTDFTLKISRVEAEDLGVYFCSQSTHVPYTFGGGTELEIK
B2: 8-J17: mouse anti-α11β1 mAb; VH SEQ ID NO: 113, VL SEQ ID NO: 114 (antibody, V domains shown)
VH: QVQLQQSGAELAKPGASVKMSCKASGYTFTNYWMHWVKQRPGQGLEWIGYINPNNGYTEYNQRFKDKATLTADRSSTTAYMQLSSLTSEDSAVYYCARSDIITTDYWGQGTTLTVSS
VL: B1 VL with V19A, C25S, H31Y, Q50K, I56V, Y101W, E108K
B3: 8-I14: mouse anti-α11β1 mAb; VH SEQ ID NO: 109, VL SEQ ID NO: 110 (antibody, V domains shown)
VH: EVQLQQSGPELVKPGASVKKSCKASGYTFTDYYMHWVKQKPGQGLEWIGKIYPGSGNTHYNEKFKGKATLTADKSSSTAYMQLSSLTSEDSAVYFCATNYYGYRAMNYWGQGSSVTVSS
VL: DIHLTQSPSSLSASLGERISLTCRASQDIYISLNWFQQKPDGTIKLLIYGTSSLDSGVPKRFSGSRSGSDYSLTISSLESEDFADYYCLQYASSPYTFGGGTKLEIK
B4: 8H8E9: rat anti-α11β1 mAb; VH SEQ ID NO: 149, VL SEQ ID NO: 150 (antibody, V domains shown)
VH: MAVLVLLLCLVTFPSCALSQVQLKESGPGLVQPSQTLSLTCTVSGFSLTSNSVSWVRQAPGKGLEWMGAIWSGGSTDYNSALKSRLSISRDTSKSQVFLKMNSLQTEDTAIYFCTRSHWEPFDYWGQGVMVTVSS
VL: MESQTQALISLLLWVYGTCGDIVMTQSPFSLAVSEGEMVTINCKSSQGLLSSGNQKNYLAWYQQRPGQSPKLLIYYASTRQSGVPDRFIGGGSGTDFTLTISDVQAEDLADYYCLQHYSYPPTFGSGTKLEIK
B5: 6E5C11: rat anti-α11β1 mAb; VH SEQ ID NO: 151, VL SEQ ID NO: 152 (antibody, V domains shown)
VH: B4 VH with K24R, S54T, A59P, G73D, A81T, N102S
VL: B4 VL with F29L, M38T, I41M, G48S, L50F, R65K, G91S, A106T, S119N
B6: 79E3E3: rat anti-α11β1 mAb; VH SEQ ID NO: 145, VL SEQ ID NO: 146 (antibody, V domains shown)
VH: MDWLWNLLFLMVVAQSAQAQIQLVQSGPEVKKPGESVKISCKASGYTFTDYAMNWVKQAPGNGLKWMGWINTQTGKPTYADDFKQRFVFSLETSARTTYLQINNLNIEDTATYFCTRLGTGNTKGFAYWGQGTLVTVSS
VL: MESQTHVLISLLLCVSGTCGDILINQSPASLTVSAGERVTMSCKSSQSLLYSENNQDYLAWYQQKPGQFPKLLIYGASNRHTGVPDRFTGSGSGTDFTLTISSVQAEDLADYYCEQTYRYPFTFGSGTKLEIK

Biological target: T1, α11β1 expressed on the surface of CHO-K1 cells
Test: FACS antibody binding to CHO-K1 cells expressing human α11
Conditions: FACS
Description: 200,000 cells (wild-type CHO-K1 cells or CHO-K1 cells expressing human α11) were incubated with each antibody at desired concentrations in FACS buffer for 30 min at 4° C. Then, the cells were washed with FACS buffer and incubated with secondary antibody at 1:100 dilution for 30 minutes at 4° C. Cells were then washed and fixed with 1% PFA in PBS for 20 minutes at room temperature; washed again and read on a cytometer in FACS buffer.
Since integrins are large, transmembrane receptors that exist in different conformational shapes, experiments were performed to confirm that the novel antibodies also bound cell-expressed α11β1. A CHO-K1 cell line that endogenously expressed high levels of the β1 subunit was engineered to stably express human α11 (CHO-K1 hu α11).
Binding EC50 was estimated using data from Fluorescence-activated cell sorting (FACS) performed with CHO-K1 hu α11β1 cells.

Row | CHO-K1 binding EC50 (in words) | Molecule
1 | low nanomolar range | B1
2 | low nanomolar range | B2
3 | low nanomolar range | B3

Same assay, conditions: binding Yes/No

Row | CHO-K1 FACS | Molecule
4 | Yes | B4
5 | Yes | B5
6 | Yes | B6
7 | Yes | B1
8 | Yes | B2
9 | Yes | B3

System: α1β1, α2β1 and/or α10β1
Test: Counter-screen for cross-reactivity to other collagen receptors
Assay type: binding, human
Conditions: cross-reactivity to α1β1, α2β1, α10β1
Description: Wistar rats were immunized with recombinant human α11β1 protein. An enzyme-linked immunosorbent assay (ELISA) was used to test an immune response against target human and mouse proteins. Subsequently, cell fusion (by electro fusion) was performed with animals that produced a good immune response. All fused cells were plated in a 96-well plate and supernatants were screened by ELISA against soluble human and mouse α11β1. Positive clones were counter-screened against human α1β1, α2β1 and α10β1. […] Purified antibodies were then generated from the selected clones and heavy chain and light chain variable domain sequences were obtained from each purified antibody.
10 mice from 5 different strains were immunized with an appropriate mixture of human α11β1, mouse α11β1 and tolerance breaking protein. Plasma titers were evaluated by ELISA against a mixture of human and mouse α11β1. Popliteal, inguinal, and iliac lymph nodes were collected. ELISA-positive anti-human/mouse α11β1 hybridomas were expanded and subjected to a secondary screen against human and mouse α11β1, control HIS protein, and a counter-screen was performed against human […], α2β1 and α10β1. Supernatant IgG concentration was sufficient for functional screening. Selected hybridomas satisfying all the criteria were cloned and clonal hybridomas were confirmed by ELISA against human and mouse α11β1 and subsequently scaled-up and IgGs were purified. Heavy and light chain variable regions of selected hybridomas were then sequenced.
α11β1 belongs to a family of collagen receptors and has a relatively high homology to them. Therefore, the novel antibodies of this invention were counter-screened against α1β1, α2β1 and/or α10β1. Table 2 includes results of cross-reactivity to the other receptors.

Row | Off Target | Molecule
10 | No | B4
11 | No | B5
12 | No | B6
13 | No | B1
14 | Yes | B2
15 | No | B3

Biological target: mouse α11β1 (Mus musculus, UniProt P61622)
Test: ELISA binding to recombinant mouse α11β1
Conditions: not given
Description: 0.25 μg/mL of target antigen (recombinant human or mouse α11β1) was plated in a 96-well plate over night at 4° C. Plates were washed (PBS with 0.1% Tween-20), blocked (PBS with 2% BSA and 0.05% Tween-20) for 1 hour at room temperature and incubated with a range of antibody concentrations for 1 hour at room temperature. Subsequently, plates were washed and incubated with biotinylated anti-rabbit/mouse/human IgG in a 1:1000 dilution buffer and incubated for 1 hour at room temperature. After washing the plates, Streptavidin HRP was added at 1:200 in dilution buffer and incubated for 1 hour at room temperature. Ultra TMB ELISA substrate solution was added and the plates incubated for 5 minutes on a plate shaker. The reaction was stopped by adding stop solution to each well and plates were read at 450 nm.

Sequence of mouse α11β1 (P61622 23-1141 limits assumed): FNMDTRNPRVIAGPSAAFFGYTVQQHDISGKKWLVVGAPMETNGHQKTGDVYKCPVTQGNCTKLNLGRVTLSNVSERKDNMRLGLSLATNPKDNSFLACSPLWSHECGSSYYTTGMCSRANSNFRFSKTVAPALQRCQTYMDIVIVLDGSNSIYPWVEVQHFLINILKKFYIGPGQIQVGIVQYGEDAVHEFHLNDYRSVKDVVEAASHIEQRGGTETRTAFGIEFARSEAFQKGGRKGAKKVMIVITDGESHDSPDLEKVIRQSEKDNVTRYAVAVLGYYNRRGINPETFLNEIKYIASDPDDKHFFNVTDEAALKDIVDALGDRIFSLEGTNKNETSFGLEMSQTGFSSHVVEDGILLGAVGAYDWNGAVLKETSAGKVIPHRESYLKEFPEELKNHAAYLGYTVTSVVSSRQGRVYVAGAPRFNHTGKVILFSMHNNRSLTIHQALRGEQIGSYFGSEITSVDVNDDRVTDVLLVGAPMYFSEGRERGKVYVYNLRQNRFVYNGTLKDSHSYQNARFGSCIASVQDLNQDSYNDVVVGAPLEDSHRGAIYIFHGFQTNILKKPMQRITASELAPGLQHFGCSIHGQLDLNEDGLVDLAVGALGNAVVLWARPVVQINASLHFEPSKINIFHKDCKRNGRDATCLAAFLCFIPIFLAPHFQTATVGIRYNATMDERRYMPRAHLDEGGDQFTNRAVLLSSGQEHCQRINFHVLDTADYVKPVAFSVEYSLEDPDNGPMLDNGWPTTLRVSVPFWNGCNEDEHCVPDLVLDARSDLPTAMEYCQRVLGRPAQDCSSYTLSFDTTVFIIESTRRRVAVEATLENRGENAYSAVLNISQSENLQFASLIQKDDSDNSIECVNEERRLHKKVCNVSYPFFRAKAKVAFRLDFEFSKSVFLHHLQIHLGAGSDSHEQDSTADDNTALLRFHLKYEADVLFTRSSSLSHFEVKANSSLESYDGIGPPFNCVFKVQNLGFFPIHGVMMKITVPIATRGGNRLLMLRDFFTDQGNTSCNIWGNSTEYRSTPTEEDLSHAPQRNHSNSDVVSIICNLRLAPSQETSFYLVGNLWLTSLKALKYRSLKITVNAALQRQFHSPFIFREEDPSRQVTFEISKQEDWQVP
Sequence of mouse α11β1 (P09055 21-728 partner limits assumed): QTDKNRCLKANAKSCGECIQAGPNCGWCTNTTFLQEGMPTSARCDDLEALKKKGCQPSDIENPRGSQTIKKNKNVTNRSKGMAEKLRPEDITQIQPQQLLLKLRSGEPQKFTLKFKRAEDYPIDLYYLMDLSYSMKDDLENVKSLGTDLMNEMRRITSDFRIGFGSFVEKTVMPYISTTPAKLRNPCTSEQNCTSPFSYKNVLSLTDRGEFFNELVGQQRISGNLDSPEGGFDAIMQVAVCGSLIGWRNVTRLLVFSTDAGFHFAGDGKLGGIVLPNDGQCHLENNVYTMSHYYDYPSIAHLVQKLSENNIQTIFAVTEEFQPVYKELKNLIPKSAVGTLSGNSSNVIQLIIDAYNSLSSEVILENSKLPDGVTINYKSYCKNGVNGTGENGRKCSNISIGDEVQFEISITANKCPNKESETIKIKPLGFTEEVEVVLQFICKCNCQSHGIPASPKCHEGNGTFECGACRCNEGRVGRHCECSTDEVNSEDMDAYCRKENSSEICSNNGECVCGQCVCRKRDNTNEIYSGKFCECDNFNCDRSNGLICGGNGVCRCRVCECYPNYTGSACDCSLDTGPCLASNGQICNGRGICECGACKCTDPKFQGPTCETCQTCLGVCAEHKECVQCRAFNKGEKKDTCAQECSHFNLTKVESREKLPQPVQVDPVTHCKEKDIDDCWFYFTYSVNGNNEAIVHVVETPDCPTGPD

Row | binding to mouse α11β1 | Molecule
16 | cross-reacts with mouse α11β1 | B6

Same assay, conditions: binding Yes/No

Row | Murine α11β1 ELISA | Molecule
17 | No | B4
18 | No | B5
19 | Yes | B6
20 | No | B1
21 | No | B2
22 | Yes | B3

— US12460006B2, “Antibodies against integrin alpha 11 beta 1” (Momenta Pharmaceuticals, Inc., priority 2019, dated 2025)
